# From the supplement of paper PMC9170038
# Test system: K4 kissing-loop RNA reporter
# Experiment: apparent KD of K4 kissing-loop reporter; higher = weaker reporter binding
# Details: Eterna round: R107
# Procedure: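 RNA-MaP round R107: designed RNA switches with theophylline, tryptophan, arginine or FMN aptamers are transcribed on-chip within common flanks. They are titrated with a labelled K4 kissing-loop RNA reporter in RNA-MaP buffer (100 mM Tris pH 7.5, 80 mM KCl, 4 mM MgCl2), without ligand or with the indicated ligand. Median apparent KD per design.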
# [1] = input ligand: theophylline 20 uM
# [2] = input ligand: tryptophan 2.4 mM
# 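Also: bound reporter read as fluorescence of individual clusters on recovered sequencing chips by microscopy, with normalized cluster intensities fitted with a binding model.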
Sequence,apparent KD of K4 kissing-loop reporter (input ligand: FMN 200 uM) [nM],apparent KD of K4 kissing-loop reporter (input ligand: arginine 13.2 mM) [nM],apparent KD of K4 kissing-loop reporter (input ligand: none) [nM],apparent KD of K4 kissing-loop reporter [1] [nM],apparent KD of K4 kissing-loop reporter [2] [nM]
AAGCAGUCCCUUGUAGUCAUCGAAGAUGAACGAGGACCGGUACGGCCGCCACUCGGAGUGAUGUUCCGAAGGCUGCAAAAUAAAA [MatMod 19 - Jieux - Exclusion - Tryptophan A],122,123,135,152,310
AAGGCCACGAGAAGGAGCGUGUUGUGGAGUGAUGUUCCAUUGUAGACCUAAGGUCUGCGAGCACAGGUAGGUCGCUCGUGGUCAA [whbob_SS_Arginine_B_2t150],108,116,107,110,117
AAGGUAAGUGCAUACAAAGUGAUGUUUUGUCGAGGACCGGUACGGCCGCCACUCGCCCAGUUAAGUGACCGACGUCAACGAAUAA [theeternabot_exclusion_KL_Trp_A_21],606,552,582,502,498
AAGUAAUUAAUAAUUUAUAUAAGUUAAACAGAGGAUAUGCAUUAUUGCAGAAGGCUGAAUGCAGUGAUGUUGCAAUGAUUAUUUA [JR_SSFMNA_Sub001],18.9,84.7,58.3,116,60.8
AAGUGAUGUUGUAGUGAUGUUGUGAUGUUGCAGGAUAUAUAGUGAUGUAGAAGGGUAAGUACUUAUUUUUUUUUUGAGUUAUGUU [crrczrmullin],85.5,33,62.8,45.9,65.4
AAGUGAUGUUGUAGUGAUGUUGUGAUGUUGCAGGAUAUAUAGUGAUGUAGAAGGGUAUGUGCAGUUUUAUUUUUUGAGUGUUGAU [ttytmullin],72.1,31,54.8,42.2,58.1
AAGUGAUGUUGUAGUGAUGUUGUGAUGUUGCAGGAUAUAUAGUGAUGUAGAAGGGUAUGUUCAGUUUUUUUUUUUGAGUGUUGAU [szxmullin],84.3,35.3,62.8,47.6,66.5
AAGUGUGUGGCGGCCGCCACUAGAAUCCAGUGAUGUUGGAGUUAUCAAAUAAAUGAUAAUCAACAUAGGACCGGGCCAUAUAGAA [Same State - Tryptophan B (Freestyle 4)],690,430,626,523,469
AAUAAAAUCACGGCCGCCACUGAUUAGCAUAUUAGGAGUGAUGUUUCUAUGACUAUAUAAUUGAACAGGACCGGGUGAAUAUUUA [#20 K4 Tryptophan B Exclusion],424,294,417,314,400
AAUAAGGUCGCCGAUACCAGCGCAGGCAGAGCAAAGCUCUGCCAGGUAGUGAUGUUACCGCGCCCUUGGCAGCGGUGGCACGACC [Omei KL Theo B SS C v2],523,357,516,459,579
AAUAAUGAUGUUUAGGAUUUCCGAAUGGAAGGAGCGUGCGAAAGCACAGGUAGGUCGCCAGUGAUGUUGGGACCUGAGCAUCAAA [#SwitchBubble 6 #K4Late],681,514,703,807,629
AAUAGAUCAUUAUAGUGAUAAAUGCCUGAUACCAGUGAGAGAUGGCACCCUUGGCAGCAGAGAUGAGUGAUGUUCAGACUGUAAA [theeternabot_sameState_KL_Theo_A_11],114,118,104,123,91
AAUAUAGUGAUGUUAUAUAAGAAGGAGUUACGAGGACCGGUACGGCCGCCACUCGAAACGAGUGAGGGUUUGGGAGAUUGGGCCC [SSTryptA.J],493,310,451,322,384
AAUAUAGUGAUGUUAUAUAAGGAAAGAAGGCGAGGACCGGUACGGCCGCCACUCGAAAGGUGAGAAGGUGGCGAAGAAGAAAGAA [ExTryptoA.B],312,280,331,433,377
AAUGUACAAGUGAUGUUUGUACUUUCCGAAGGAGCGUCUAAUAAGACAGGUAGGUCGCGGAUUCUCUAAAUUAUCAGGUCAUUAA [JR_ExcArginiA_Sub018],91.8,85.4,94.3,85.6,87.4
AAUGUACAGGGAAGGAGCGUCGUCCAGUGAUGUUGGAGUUAAAUACCAGUGAUGUUGGUUAGACAGGUAGGUCGCCCUAAAGUGC [Exclusion Arginine B Gf 3],104,80.2,92,95,88
AAUUAAUACAGAAGGAGCGUGAAAUUAUCUAUUUUUUUUUUAGCUAGUGAUGUUAGCAUUUCACAGGUAGGUCGCUGUAUAUUUA [JR_SSArginiB_Sub009],148,142,166,149,138
AAUUUAUAUUUAUUCUUUAAAUGUUCAGAAGGAGCGUGAAUUAUCACAGGUAGGUCGCUGGGCUAGUGAUGUUGGCUAUAUACUA [whbob_Ex_Arginine_A_2t125],150,186,162,196,124
AAUUUAUUAACUGAUACCAGACUUUAGCGCGUUUAUAAGUCAAGUGAUGUUUGACUAAUUGUCCCUUGGCAGCAGUAUUUAUUAA [JR_SSTheophyB_Sub021],233,210,216,157,197
ACAGGAAUCUUUGAUACCAGAACCCGUCUACCUCCAUCCUUGGAGCAUAGUGAUGUUGUGUUCCCUUGGCAGCAAUAGGGCACAU [theeternabot_exclusion_KL_Theo_B_34],711,498,632,597,644
ACAGGAUCGAAAGAUCCUGAGCAGUCAAAACGAGGACCGGUACGGCCGCCACUCGAAUAAGAGAGUGAUGUUCUCGACUGCAAAA [Omei inspired 10 - Reversed #K4Late],939,826,1210,1050,223

Sequence,apparent KD of K4 kissing-loop reporter (input ligand: FMN 200 uM) [nM],apparent KD of K4 kissing-loop reporter (input ligand: arginine 13.2 mM) [nM],apparent KD of K4 kissing-loop reporter (input ligand: none) [nM],apparent KD of K4 kissing-loop reporter [1] [nM],apparent KD of K4 kissing-loop reporter [2] [nM]
ACAGGAUCGAAAGAUCCUGAGCAGUCUAACCGAGGACCGGUACGGCCGCCACUCGGAGUGAUGUUCCGAGGACUGCAAAAUAAAA [#SwitchBubble 2 #CoaxialStacking],330,305,298,329,795
ACAGGAUCGAAGAUCCUGAGCAGUCAGGUCCGAGGACCGGUACGGCCGCCACUCGGAGUGAUGUUCCGAAGACUGCAAAAUAAAA [#SwitchBubble 4],853,455,1110,968,338
ACAUGAGUGAUGUUCAUGUGGAGCAGGGUACGAGGACCGGUACGGCCGCCACUCGAGAGUUAUGACGAGUUAAUGGCAACGAUGU [KL-Tryp-A8 #analogue],122,90.2,98.8,96.3,103
ACAUGUUCCAGUGAUGUUGGCGUACGUGAUACCAGACGAAUAAAAGUCCCUUGGCAGCACAAAUAAGCCAAGAUAGGUGAAUGAU [#04 K4 Theophylline A Exclusion],403,272,495,538,405
ACCAUCAAAGAUGGCCAGGACUCCGCUGAUACCAGUGUGAAAACACUCCCUUGGCAGCAGGUGAGUGAUGUUCACAGUCCAUGGA [Omel KL Theo A SS B v3],145,116,150,146,143
ACCCGUAGGAUACGGAGGUGUAAAUGGGUAUAGGAUAUCUAGAAAUAGAGAAGGAUACCAGUGAUGUUGGUUCCGUAUAUCUUAA,272,137,105,90,119
ACCCUACUCGGGCGGCUAUACAGUUAAGCUAAGGAUAUGUAUUCGUACAGAAGGUAGAAGAAGCCGAGUGAUGUUCGACACGCCC [theeternabot_sameState_KL_FMN_A_24],557,386,544,293,413
ACCUACGAUCACAAAAGUGAUUGUAGGAUCUAGGAUAUGCUGAAGAGCAGAAGGAGAGUGAUGUUCUCAUCUCACGAAAGUGAGA [whbob_Ex_FMNA__2th189],408,189,216,263,201
ACCUGUAGCAGAAGGAGCGACAGUUAUUCUGAUAGAACUCUGAGUGAUGUUCAGAACAACUGUCAGGUAGGUCGCUGAUACAGGU [Arg B Ex t8a],577,370,560,512,583
ACCUGUGACUGAAGGAGCGUCUACUCCAGAGGAUGGAGUGAUGUUCCACUUUAAUGGAGUGGACAGGUAGGUCGCAGUCAUAGGA [Arg B SS t6],126,94.5,108,88.7,115
ACCUUUUUUGCCAGUGAUGUUGGACAGGAAGGAGCGGGCAUAAGCCCAGGUAGGUCGCCUGUCAACUUUCUUAUAGCCCUAAGGU [KL-XArg-A17],365,270,507,479,349
ACGCUGGUGAAUAACACUAGCGAAUAAUUCCGAGGACCGGUACGGCCGCCACUCGGCUAACUGCGAGUGAUGUUCGAUAAUAAAA [Mat - Mod of OpenEnded 3 - D10],78.5,158,103,156,57.5
ACGUAGUUCUAGGAUACCAGCCAAGAUGCCAGGACAAAAGUCCUGGCAGCCAGUGAUGUUGGCCCUUGGCAGCCUAGAACUACGA [Omei KL Theo B Exc B v9],149,115,132,121,120
ACGUCUCGUUAAAUCGUGGUUUCGAUCGAUACCAGUAGCGAGAGUUACCCUUGGCAGCGAAAUGAGUGAUGUUCAUGAAAGAAGA [KL-XTheoA9],65.2,109,69.4,130,57.3
ACUACGAAGACGGCCGCCACUGAUAUUCGUAGAUCCAUCAUUACAUGAGUGAUGUUCAUGUAUAUCAGGACCGGGUCAAGAUGGU [KL-XTryp-B17 #analogue],184,146,164,162,226
ACUGGGUUGACGAAAGUCAACAAAAGAGAAGGAGCGCACGAAAGUGCAGGUAGGUCGCUCAUCCAGUGAUGUUGGAUCAUCCAGA [#SwitchBubble 17 #K4Late],444,679,626,392,305
AGAACUGUCUUGGAUACCAGUGAUGUUGGUAUCGAUGUGUGAGUGCAAAGCGUCCCACAUCGCCCUUGGCAGCUAAGACAGUUCA [Omei KL Theo B Exc A v5],331,292,341,375,292
AGAAGAUAUCAAGAUACCAGCUCCCGGCCCAAAACCCAGAUACACGAGUGAUGUUCGUUCAGCCCUUGGCAGCUUGCCUAGUUCU [theeternabot_sameState_KL_Theo_B_6],94.4,149,125,163,89.4
AGACCACAAAGUGGUCAGUGUUCGCUCCGGCGAGGACCGGUACGGCCGCCACUCGCGAGUGAUGUUCGCGAGCGGAGCGAACACA [Omei KL Tryp A Exc A v2],101,86.6,99.9,88.9,95.1
AGACUACCACACUGUCAAUAGACAGUGUACUAGGAUAUGCUGAUAAGCAGAAGGAGUGAUGUUCCCAGGUAGUCAAUAAAAUAAU [FmnAX 13 U28+C66],274,189,243,270,225
AGAUCUGUAACAGAUACCAGAGGACGAUGAUCGAACAGUGAUGUUAUCUGUUAGUCGUCGCUCCCUUGGCAGCUGUUACAGAUCA [Omei KL Theo B SS B v4],106,46.2,55.5,72.1,84.9
